According to a protein production outcome set (Wang et al. 2014):

Assay: label from the status in PepcDB records

Row | Sequence | protein production
1 | MKDLIKVQQKLIPDLIDKMYRRFYILSTISQNQPVGRRSLSEHMDMTERVLRSETDMLKKQELIRVKPTGMEITNEGTEVLAQLGEYFNVYSDDHKLASAIKDKFHIKDVHVIPGDSDSNRTVKREMGQQAGQLLEGILYEDAIVSVTGGSTMACVSESIHLLPFNVFFVPARGGLGENVVYQANTIASSMAQQAGGYYTTLYVPDNVSESTYDTLMLEPSVMHTLDKIKQANITIHGIGDALKMAHRRQSSQNVIDNLQHHQAVGEAFGYYFDAQGQIVHKVKTIGLQLEDLENKDFIFAVAGGQSKGEAIKAYLSIAPENTVLITDEAAAKVILQ | not failed
2 | MKDPNSQYQIDYVLLFILFAIGIVSCCAIASAQASLPPFLQNVNFVLKQIQWYFIGFIAIGVIMIIDFDRYQKIAWYLYSFAMVLLIGLELQVPGAVTIKGATAWYRLPGIGNFQPSEIMKLFLIIVIGRIIANHNEKYFSQTIHDDFLLLGKIFATSLPPLLLIAKEPDLGNTMVISAMLAAMILVSGIRWRFIFGLVSGTFVAGSTLIYIFFTHTDFFKAHILKEYQLNRFYGWLAPYKYDAQGYQLRQAFLATGSGEMQGKGWENGQVYFPEPHTDFIFTNVAEQFGFLGASVIISLFFLLIFRMIHIALESNDPFGSYICAGTIGMFTFQVFQNIGMTIGLLPITGITLPLMSYGGSSLLTYMIAIGFILNVRSRTKIFMFK | failed
3 | MKDTDETAFLNSLFMDFTSENELELFLKSLDEVWSEDLYSRLSAAGLIRHVISKVWNKEQHRISMVFEYDSKEGYQKCQEIIDKEFGITLKEKLKKFVFKIHNNRGVVVSEFIRST | not failed
4 | MKDTFRLENQTIYFGTERAISASPQTIWRYLTETDKLKQWFPELEIGELGVNGFWRFILPDFEETMPFTDYAEEKYLGVTWDTGIIYFDLKEQAPHQTLLVFSESLPENFTTPRHKDIAGWSIVLNRLKQVVETPDAAPEKIDFPQIENHYLEKLTNLEN | not failed
5 | MKEGKWFASANNQNKFLDPRERGNILNYLKVCLLLARAVRRMHAAGLCHSDLSYKNVLIDPEQGHACIIDVDGLVVPGKFPPDVVGTPDFIAPEVVKTSHLLKEDPQRILPNITTDRHALSVLIYMYLFYRHPLRGGKIHDMDDEVRDESLAMGERALFIEHPTDRSNAVKLNQVKPSSLPWADPQKVPYTIMGPYLTQLFEKAFIDGLHDPSKRPTADEWETALVKTVDLIQPCQNTACEQKWYVFSGKTKPVCPYCLEHHHHHH | failed
6 | MKEIESKTSAKIITDTFVRIFLIFSLLITIIVSGIVAFTSLQIRKSEGAALLNSVQTAATNGQVNWDEFKLDSEKDEKATFVRLTSPSGQREESQGTTNFLKSRKSWGNFSLLRDDIFLYSSKTSKNGTKAELWLNINVVVKSMIRAILVIIAVMIFLFFLALILIQKAARTISQPLTDIVVATDGKDVKQVPVSKNPLEVHQLSQSFNRLLNRLNQKIENEQQFVSDASHELRTPVAAIRGHVNLLKRRWHEHPEIVDESLSYIDEESMRMKVLIENLLTISRGNHLEIKKERINLSKFTDKVVSEIQLALRQKINFDIQTDLFVSMDKMALYKIIIIFLENAGKYSPSNSEITINITLENHQVDFQVADEGIGVPEEEKDNIFERFYRIDKSRSSEIPGTGLGLAIAKEYAQLNDAKVFVSNNSPKGSTFHLLMESIEN | failed
7 | MKEIVTIENVSFNYHNRAVFKDFNLSIQEGDFLCVLGESGSGKSTLLGLILGLLKPSLGSVKIFNETLSNNAFLRQKIGYIAQGNSLFSHLNAMQNMTFCLNLQGINKQAAQKEAKALALKMGLDESLMDKFPNELSGGQAQRVGIIRGIIHRPELILLDEPFSALDSFNRKNLQDLIKEIHQNSHATFIMVTHDESEAQKLATKTLEIKALKQEQ | failed
8 | MKEKENIQKIIIAMIQTVVVYFSASLTLTLITPNFKSNKDLLFVLLIHYIVFYLSDFYRDFWSRGYLEEFKMVLKYSFYYIFISSSLFFIFKNSFTTTRLSFFTFIAMNSILLYLLNSFLKYYRKYSYAKFSRDTKVVLITNKDSLSKMTFRNKYDHNYIAVCILDSSEKDCYDLKHNSLRIINKDALTSELTCLTVDQAFINIPIELFGKYQIQDIINDIEAMGVIVNVNVEALSFDNIGEKRIQTFEGYSVITYSMKFYKYSHLIAKRFLDITGAIIGLLICGIVAIFLVPQIRKDGGPAIFSQNRVGRNGRIFRFYKFRSMRVDAEQIKKDLLVHNQMTGLMFKLDDDPRITKIGKFIRKTSIDELPQFYNVLKGDMSLVGTRPPTVDEYEKYNSTQKRRLSFKPGITGLWQISGRNNITDFDEIVKLDVQYINEWSIWSDIKIILLTLKVVLLGTGAK | failed
9 | MKEKIPFYNEKEFHYMMKKTKKGTFSGWYIINPENNSVEFSGSFNRQFKLNKPVIPVNTEYVTRKEFNEYKDSNDQRLTKIENKVDKLEIKVDKLEKKVDKLEVKVDKLVETVNAQGEDLNNFKVEVRGTLQSQGETLQLILQTLQGMSKRLDSVEGRLDSMDGRLDSMETRLDKIDPLKLEHHHHHH | failed
10 | MKELNDIEVTCVSGGTLSGMIVGAVDGAATGMAIGGKWGGAGGFGFGALSQLVGLIVPTAMGAIAGGTVGLFTNAETAVGYLGQYRENFGPGDVGRTTI | failed
11 | MKELNLTQGSVPKVLLQYAVPFLIANVLQALYGGADLFVVGQYDDSASVAAVAIGSQVMQTITGIILGITTGTTVLIAIATGAKDDKKVAFTIGSSVWLFSIIGVLLTLVMVVFHGRIAELMHTPIEAMADTKSYILVCSAGILFIVGYNVVCGILRGLGDSKTPLYFVALACVINIVLDFILVGYFHLGATGAAVATITAQGVSFMISLWFLYRHGFHFEFTRKDIRLNRNLAKKVMTLGAPIALQDALINISFLIITVIVNQMGVIASASLGVVEKIIVFAMLPPMAISSAVATMTAQNYGAGLIQRMNRCLASGIGIAFVFGVSVCVYSQFLPETLTAFFTKDAAVVSMAAEYLRGYSIDCIVVSFVFCINSYFSGQGNSLFPMIHSLIATFLFRIPLSYWFSQIDSSSLFIMGFAPPLSTVVSLLICIWYLRYTRKKVYLKGTMMPAMSN | failed
12 | MKERRAPQPVVARCKLVLVGDVQCGKTAMLQVLAKDCYPETYVPTVFENYTACLETEEQRVELSLWDTSGSPYYDNVRPLCYSDSDAVLLCFDISRPETVDSALKKWRTEILDYCPSTRVLLIGCKTDLRTDLSTLMELSHQKQAPISYEQGCAIAKQLGAEIYLEGSAFTSEKSIHSIFRTASMLCLNKPSPLPQKSPVRSLSKRLLHLPSRSELISSTFKKEKAKSCSIM | failed
13 | MKERVIITGANGQLGKQLQEELNPEEYDIYPFDKKLLDITNISQVQQVVQEIRPHIIIHCAAYTKVDQAEKERDLAYVINAIGARNVAVASQLVGAKLVYISTDYVFQGDRPEGYDEFHNPAPINIYGASKYAGEQFVKELHNKYFIVRTSWLYGKYGNNFVKTMIRLGKEREEISVVADQIGSPTYVADLNVMINKLIHTSLYGTYHVSNTGSCSWFEFAKKIFSYANMKVNVLPVSTEEFGAAAARPKYSIFQHNMLRLNGFLQMPSWEEGLERFFIETKSH | not failed
14 | MKETPRASGATNFILVGLGVIIALLGLLLAAGGVKLAGLGGSWYFLIGGLAMAIAGVLIARRKKAGAWLYAVFLVGTAIWALIDAGLVFWPLFSRLFMFGAIGMVVALVYPLLARANGASAGRGAYGVAGVMAVVLVVAVGNMFVAHPSVAPTGKGPGMTPVETGKEQKDWAHYGNTEGGSRFAALDQINRDNVNKLKVAWTYQTGDVAISDGNGAEDQLTPLQIGSKVFICTPHNNLIALDADTGKELWKNEINAQSKVWQRCRGMAYFDATAAIAQPTQPNSSPITGVSVAAGANCQRRLLTNTIDGRLIAVDADTGEFCQGFGNNGQVDLKAGLGDVPDSYYQLSSAPLMAGTTVVVGGRVADNVQTDMPGGVIRGFDVITGEMRWAFDPGNPEDRQAPQGDKTYVRSTPNSWAPMSYDPAMNTVFLPMGSSSTDIYGVERSKLDHTYGASVLALDATTGNQKWVFQTVHNDLWDFDLPMQPSLIDFTKDDGQSVPAVVIGTKAGQIYVLDRATGKPLTQVDEVPVKPSNIPNEPYSPTQPKSVGMPQIGAQTLTESDMWGATPYDQLLCRIDFKKMRYDGLYTAPGTDLSLSFPGSLGGMNWGSISTDPVHGFIFVNDMRLGLWIQMIPSQNKGGAASGGEALNTGMGAVPLKGTPYAVNKNRFLSVAGIPCQAPPFGTLTAIDMKTRQVAWQVPVGTVEDTGPLGIRMHLPIKIGLPTLGGTLSTQGGLVFIAGTQDFYLRAYDSSNGNEIWKARLPVGSQGGPMTYVSPKTGKQYVVITAGGARQSTDRGDYVISYALP | failed
